The record followed here is paper PMC8284805, “Mechanism underlying the DNA-binding preferences of the Vibrio cholerae and vibriophage VP882 VqmA quorum-sensing receptors”.

For data set [1], the system named is GST-DBDPhage (Vibriophage VP882). As to the kind of experiment: EMSA. The following applies: EMSA: 25 nM DNA, 18.75-600 nM protein (dimer), 6% DNA retardation gel, SYBR Green; buffer, pH and temperature not given (cited protocol); EC50 values only in ….
Data set [2] concerns the target GST-DBDPhage (GST fused to the N-terminus of the VqmAPhage DNA-binding domain) (not stated | vibriophage VP882). As to the kind of experiment: SEC; gel filtration of the purified proteins, UV280 traces (S3D Fig). (SEC sorts molecules by how far they enter the pores of the column.)
Data set [3] addresses GST-DBDVc (GST fused to the N-terminus of the VqmAVc DNA-binding domain) (not stated | Vibrio cholerae). The description is as above.
Another data set addresses VqmAVc (Vibrio cholerae, UniProt A0A0F0AZW0 1-246). As to the kind of experiment: EMSA; EMSA: 25 nM DNA, 18.75-600 nM protein (dimer), 6% DNA retardation gel, SYBR Green; buffer, pH and temperature not given (cited protocol); EC50 values only in S2A Fig. The following applies: protein: recombinant; chain copies: 2; blunt.
For data set [4], the target named is T1, VqmAPhage (Vibriophage VP882, UniProt A2I306 1-235).
T1 sequence: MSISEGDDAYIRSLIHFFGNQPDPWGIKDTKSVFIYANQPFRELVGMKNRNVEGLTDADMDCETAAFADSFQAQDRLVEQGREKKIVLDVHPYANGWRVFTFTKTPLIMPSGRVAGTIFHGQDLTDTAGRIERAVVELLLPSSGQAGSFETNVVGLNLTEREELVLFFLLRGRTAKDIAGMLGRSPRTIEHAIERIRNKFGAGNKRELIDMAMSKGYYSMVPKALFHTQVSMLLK
As to the kind of experiment: EMSA; half as strong as PvqmR*; EMSA: 25 nM DNA, 18.75-600 nM protein (dimer), 6% DNA retardation gel, SYBR Green; buffer, pH and temperature not given (cited protocol); EC50 values only in S2A Fig. Particulars: protein: recombinant; chain copies: 2; blunt. (In general: In EMSA bound probe runs differently from free probe, usually more slowly.)

Data set [5] has as its target T1, VqmAPhage. As to the kind of experiment: EMSA; EMSA: 25 nM DNA, 18.75-600 nM protein (dimer), 6% DNA retardation gel, SYBR Green; buffer, pH and temperature not given (cited protocol); EC50 values only in S2A Fig. The following applies: protein: recombinant; chain copies: 2; blunt.

In data set [1], “GAATACACTCCTTGTAAGTGATTGTTATAAGGAGCTTTATTCTTGATGCATATAAGAAATACCGATAGGGGGAAAAATACCCTGATAAGCAGCTGCTAAAATTGATAAATGTCAATAAGCGAAGGGGATGATGC (double strand) [Pqtip]” yielded a binding signal (fold stronger than PvqmR) of 5.

As usually defined, the stoichiometry N is the number of molecules, sites or subunits per partner or assembly. Turning to “GST-DBDPhage (GST fused to the N-terminus of the VqmAPhage DNA-binding domain)”, in data set [2], the stoichiometry N is 2. In data set [3], “GST-DBDVc (GST fused to the N-terminus of the VqmAVc DNA-binding domain)” gave a stoichiometry N of 2.

B1: Pqtip* (dsDNA)
DNA 1: GTGATTGTTATAAGGAGCTTTATTCTTGATGCATATAAGAAATACCGATAGGGGGATTTCCCCCCTGATAAGCAGCTGCTAAAATTGATAAATGTCAATA
DNA 2: TATTGACATTTATCAATTTTAGCAGCTGCTTATCAGGGGGGAAATCCCCCTATCGGTATTTCTTATATGCATCAAGAATAAAGCTCCTTATAACAATCAC
As for B1, the binding result with VqmAVc and with VqmAPhage [4] was “binds” throughout.

B2: PvqmR* (dsDNA)
DNA 1: TCCGAGTATTGCGCGAGCTGTAATGTTGACTCAAACAATTATGCATAAAGGGGGGAAAAATACCCTTTTTCATTTGTACCGCGTTCGGTAAAGTACAAAC
DNA 2: GTTTGTACTTTACCGAACGCGGTACAAATGAAAAAGGGTATTTTTCCCCCCTTTATGCATAATTGTTTGAGTCAACATTACAGCTCGCGCAATACTCGGA
Regarding B2, the binding signal with VqmAPhage [5] was ~2 fold stronger than Pqtip*.
